Target: T1, human FAPα (Fibroblast activation protein alpha), cell surface expressed (human, UniProt Q12884 1-760)
T1 construct: Endogenous on human lung fibroblasts and CAFs
T1 sequence: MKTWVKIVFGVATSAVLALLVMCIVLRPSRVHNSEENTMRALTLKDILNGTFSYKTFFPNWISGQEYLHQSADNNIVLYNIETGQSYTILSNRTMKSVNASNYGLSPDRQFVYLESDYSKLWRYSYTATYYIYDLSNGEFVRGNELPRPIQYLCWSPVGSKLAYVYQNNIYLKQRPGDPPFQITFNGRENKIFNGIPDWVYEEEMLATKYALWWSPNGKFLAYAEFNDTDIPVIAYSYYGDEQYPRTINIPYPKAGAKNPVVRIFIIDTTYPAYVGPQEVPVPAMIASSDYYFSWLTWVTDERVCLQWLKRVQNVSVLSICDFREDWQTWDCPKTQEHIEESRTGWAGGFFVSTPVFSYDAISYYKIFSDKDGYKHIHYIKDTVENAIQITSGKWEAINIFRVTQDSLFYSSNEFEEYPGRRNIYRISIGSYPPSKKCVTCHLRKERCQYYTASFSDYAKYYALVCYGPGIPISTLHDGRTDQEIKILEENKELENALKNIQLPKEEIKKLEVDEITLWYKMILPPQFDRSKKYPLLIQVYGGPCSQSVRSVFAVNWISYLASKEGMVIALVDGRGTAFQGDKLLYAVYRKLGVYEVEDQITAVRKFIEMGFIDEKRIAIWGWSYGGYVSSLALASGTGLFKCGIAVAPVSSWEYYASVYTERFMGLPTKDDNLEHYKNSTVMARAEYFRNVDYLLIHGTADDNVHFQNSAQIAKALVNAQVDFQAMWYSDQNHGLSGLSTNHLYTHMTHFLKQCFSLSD
Assay: flow cytometry, human lung fibroblasts, n = 1
Description: Human lung fibroblasts and CAFs (50,000 cells/well) were seeded in 96-Well round bottom plates (Greiner Bio-one, Cat #650101). Antibody dilutions were prepared using fluorescence-activated cell sorting (FACS) buffer, consisting of phosphate buffer saline (PBS, Lonza, Cat #BE17-517Q)+1% Bovine Serum Albumin (BSA, Roche, Cat #10735086001)+0.02% Sodium Azide (Bio-World, Cat #41920044-3). Plates were centrifuged, supernatant was removed, cells were resuspended in 50 μL of human Fc Block (BD, Cat #564220, diluted 1:100 in FACS buffer) and 50 μL of viability stain TO-PRO-3 Iodide (Thermo Fisher, Cat #T3605, diluted 1: 25,000 in FACS buffer), and incubated for 15 min at 4° C. Plates were washed three times with FACS buffer. Plates were centrifuged, supernatant was removed, cells were resuspended in 50 μL of antibody dilutions (concentration range 90-0.0005 μg/mL, three-fold dilution steps using FACS buffer) of BisG1-FAPα-FERL/DR4-FERR, BisG1-FAPα-FERL/b12-FERR, BisG1-b12-FERL/b12-FERR (top six concentrations only for CAFs culture) or IgG1-FAPα-FERL (top four concentrations only for CAFs culture) and incubated for 30 min at 4° C. Cells were washed three times with FACS buffer and resuspended in 50 μL of Fluorescein isothiocyanate (FITC)-labeled polyclonal antibody goat anti-mouse IgG1 (Jackson Immuno Research, Cat #109-096-097, diluted 1:100 in FACS buffer). After 30 min incubation at 4° C., cells were washed twice with FACS buffer and resuspended in FACS buffer. Antibody binding to viable cells (TO-PRO-3 negative) was analyzed by flow cytometry on a FACSCelesta™ (BD biosciences) and data were processed using FlowJo_v10.8.1 (FlowJo LLC). Geomean fluorescence intensity, gMFI, was determined and visualized using GraphPad Prism. Binding curves were analyzed using nonlinear regression analysis. The concentration (pg/mL) at which 50% of the maximal effect was observed (EC₅₀) was derived from the fitted curves.
Binding of FAPα-targeting monoclonal antibody clones, IgG1-FAPα-FEAL and IgG1-FAP5-FEAL, and bispecific antibodies carrying a binding arm derived from the two FAPα-binding clones (BisG1-FAPα-FEAL/b12-FEAR and BisG1-FAP5-FEAL/b12-FEAR) to human lung fibroblasts, which endogenously express FAPα, was compared and analyzed by flow cytometry.

B1: BisG1-FAPα-FEAL/b12-FEAR (bispecific antibody, human IgG1, kappa)
heavy 1: EVQLLESGGGLVQPGGSPRLSCEASGFTFSSYALSWVRQAPGKGLEWVSAISGSGGGRYYADSVKGRFTISRDNSKNTLFLQMNSLRAEDTAVYYCAKEGYSSSGTYWDHWGQGTLVTVSSASTKGPSVFPLAPSSKSTSGGTAALGCLVKDYFPEPVTVSWNSGALTSGVHTFPAVLQSSGLYSLSSVVTVPSSSLGTQTYICNVNHKPSNTKVDKRVEPKSCDKTHTCPPCPAPEFEGGPSVFLFPPKPKDTLMISRTPEVTCVVVAVSHEDPEVKFNWYVDGVEVHNAKTKPREEQYNSTYRVVSVLTVLHQDWLNGKEYKCKVSNKALPAPIEKTISKAKGQPREPQVYTLPPSREEMTKNQVSLTCLVKGFYPSDIAVEWESNGQPENNYKTTPPVLDSDGSFLLYSKLTVDKSRWQQGNVFSCSVMHEALHNHYTQKSLSLSPG
light 1: AIQMTQSPSSVSASVGDRVTITCRASQGVSSWLAWYQQKPGRAPKLLIYVASTLQSGVPSRFSGSGSGTDFTLTINSLQPEDFATYYCQQANSFPPTFGQGTRLEMKRTVAAPSVFIFPPSDEQLKSGTASVVCLLNNFYPREAKVQWKVDNALQSGNSQESVTEQDSKDSTYSLSSTLTLSKADYEKHKVYACEVTHQGLSSPVTKSFNRGEC
heavy 2: QVQLVQSGAEVKKPGASVKVSCQASGYRFSNFVIHWVRQAPGQRFEWMGWINPYNGNKEFSAKFQDRVTFTADTSANTAYMELRSLRSADTAVYYCARVGPYSWDDSPQDNYYMDVWGKGTTVIVSSASTKGPSVFPLAPSSKSTSGGTAALGCLVKDYFPEPVTVSWNSGALTSGVHTFPAVLQSSGLYSLSSVVTVPSSSLGTQTYICNVNHKPSNTKVDKRVEPKSCDKTHTCPPCPAPEFEGGPSVFLFPPKPKDTLMISRTPEVTCVVVAVSHEDPEVKFNWYVDGVEVHNAKTKPREEQYNSTYRVVSVLTVLHQDWLNGKEYKCKVSNKALPAPIEKTISKAKGQPREPQVYTLPPSREEMTKNQVSLTCLVKGFYPSDIAVEWESNGQPENNYKTTPPVLDSDGSFFLYSRLTVDKSRWQQGNVFSCSVMHEALHNHYTQKSLSLSPG
light 2: EIVLTQSPGTLSLSPGERATFSCRSSHSIRSRRVAWYQHKPGQAPRLVIHGVSNRASGISDRFSGSGSGTDFTLTITRVEPEDFALYYCQVYGASSYTFGQGTKLERKRTVAAPSVFIFPPSDEQLKSGTASVVCLLNNFYPREAKVQWKVDNALQSGNSQESVTEQDSKDSTYSLSSTLTLSKADYEKHKVYACEVTHQGLSSPVTKSFNRGEC
notes: Fab-arm exchange of IgG1-FAPα-FEAL and IgG1-b12-FEAR
EC50: 0.048 µg/mL
